The text below walks through data of patent US20120189541A1 (AbbVie / Abbott, published 2012).

One may read the Kd as the free concentration of one partner at which half of the binding sites on the other are occupied at equilibrium, for simple one-to-one binding. One may read the koff as the rate constant with which the complex falls apart. What is called kon is the rate constant with which the complex forms.

The target in one assay is T1, Cynomolgus IL-1α (cynomolgus, UniProt P79340 113-271, limits assumed).
T1 sequence (looked up): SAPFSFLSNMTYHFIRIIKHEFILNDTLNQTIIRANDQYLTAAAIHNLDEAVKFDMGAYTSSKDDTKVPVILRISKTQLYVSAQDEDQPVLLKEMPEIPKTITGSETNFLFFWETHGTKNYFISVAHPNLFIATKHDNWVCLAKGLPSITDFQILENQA
Nature of the assay: cell-based or functional assay.

Assay [1] deals with T2, Recombinant Human IL-1β (human, UniProt P01584 117-269).
T2 construct: Bought recombinant protein; Biotinylated in the capture ELISA; also called hIL-1β; IL-1 beta
Nature of the assay: SPR (BIACORE), human antigen. How it is done:
(§1) The BIACORE assay (Biacore, Inc, Piscataway, N.J.) determines the affinity of antibodies or DVD-Ig molecule with kinetic measurements of on-rate and off-rate constants. Binding of antibodies or DVD-Ig molecule to a target antigen (for example, a purified recombinant target antigen) is determined by surface plasmon resonance-based measurements with a Biacore® 1000 or 3000 instrument (Biacore® AB, Uppsala, Sweden) using running HBS-EP (10 mM HEPES [pH 7.4], 150 mM NaCl, 3 mM EDTA, and 0.005% surfactant P20) at 25° C. All chemicals are obtained from Biacore® AB (Uppsala, Sweden) or otherwise from a different source as described in the text. For example, approximately 5000 RU of goat anti-mouse IgG, (Fcγ), fragment specific polyclonal antibody (Pierce Biotechnology Inc, Rockford, Ill.) diluted in 10 mM sodium acetate (pH 4.5) is directly immobilized across a CM5 research grade biosensor chip using a standard amine coupling kit according to manufacturer's instructions and procedures at 25 μg/ml. Unreacted moieties on the biosensor surface are blocked with ethanolamine. Modified carboxymethyl dextran surface in flowcell 2 and 4 is used as a reaction surface. Unmodified carboxymethyl dextran without goat anti-mouse IgG in flow cell 1 and 3 is used as the reference surface. For kinetic analysis, rate equations derived from the 1:1 Langmuir binding model are fitted simultaneously to association and dissociation phases of all eight injections (using global fit analysis) with the use of Biaevaluation 4.0.1 software. Purified antibodies or DVD-Ig molecule are diluted in HEPES-buffered saline for capture across goat anti-mouse IgG specific reaction surfaces. Antibodies or DVD-Ig molecule to be captured as a ligand (25 μg/ml) are injected over reaction matrices at a flow rate of 5 μl/min. The association and dissociation rate constants, kₒₙ (M⁻¹s⁻¹) and koff (s⁻¹) are determined under a continuous flow rate of 25 μl/minute. Rate constants are derived by making kinetic binding measurements at different antigen concentrations ranging from 10-200 nM. The equilibrium dissociation constant (M) of the reaction between antibodies or DVD-Ig molecules and the target antigen is then calculated from the kinetic rate constants by the following formula: KD=koff/kₒₙ. Binding is recorded as a function of time and kinetic rate constants are calculated.
For orientation: SPR reads the build-up and loss of mass on a sensor chip optically.

Assay [2] concerns the target T3, Recombinant Human IL-1α (human, UniProt P01583 113-271).
T3 construct: Bought recombinant protein; Biotinylated in the capture ELISA; also called hIL-1α; IL-1 alpha
T3 sequence (looked up): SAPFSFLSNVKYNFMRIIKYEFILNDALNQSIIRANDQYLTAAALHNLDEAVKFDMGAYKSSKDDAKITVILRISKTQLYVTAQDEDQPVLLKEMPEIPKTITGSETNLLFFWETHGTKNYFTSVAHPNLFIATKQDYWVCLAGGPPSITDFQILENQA
The assay can be described thus: SPR (BIACORE), human antigen. How it is done:
as §1

For assay [3], the target named is T2, Recombinant Human IL-1β. The assay can be described thus: cell-based or functional assay.
The target in assay [4] is T3, Recombinant Human IL-1α. The assay can be described thus: cell-based or functional assay.
A further assay addresses T4, Cynomolgus IL-1β (cynomolgus, UniProt P79182 117-268, limits assumed).
T4 sequence (looked up): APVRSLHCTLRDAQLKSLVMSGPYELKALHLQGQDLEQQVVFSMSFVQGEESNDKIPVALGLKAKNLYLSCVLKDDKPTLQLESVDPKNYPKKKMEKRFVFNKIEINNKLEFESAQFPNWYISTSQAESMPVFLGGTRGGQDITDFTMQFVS
Nature of the assay: cell-based or functional assay.

B1: E26.35-SS-3D12.10/15 (bispecific antibody, human IgG1, kappa, L234A L235A)
heavy: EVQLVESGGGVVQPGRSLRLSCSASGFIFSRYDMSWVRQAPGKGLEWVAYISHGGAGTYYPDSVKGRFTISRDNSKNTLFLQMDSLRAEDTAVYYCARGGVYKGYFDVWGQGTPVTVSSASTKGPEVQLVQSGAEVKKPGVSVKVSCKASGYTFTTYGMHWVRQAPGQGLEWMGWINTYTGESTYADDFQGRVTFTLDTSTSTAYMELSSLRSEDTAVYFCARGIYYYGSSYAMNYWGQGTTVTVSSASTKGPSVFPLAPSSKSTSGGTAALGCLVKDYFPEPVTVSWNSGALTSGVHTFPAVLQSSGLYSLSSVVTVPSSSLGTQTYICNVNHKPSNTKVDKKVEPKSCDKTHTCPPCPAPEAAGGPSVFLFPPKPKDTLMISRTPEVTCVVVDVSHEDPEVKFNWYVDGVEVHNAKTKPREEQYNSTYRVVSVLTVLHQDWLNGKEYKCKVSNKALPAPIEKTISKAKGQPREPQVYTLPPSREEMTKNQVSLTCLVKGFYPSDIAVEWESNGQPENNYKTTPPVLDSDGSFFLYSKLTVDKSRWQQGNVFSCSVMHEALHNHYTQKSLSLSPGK
light: DIQMTQSPSSLSASVGDRVTITCRASGNIHNYLTWYQQTPGKAPKLLIYNAKTLADGVPSRFSGSGSGTDYTFTISSLQPEDIATYYCQHFWSIPYTFGQGTKLQITRTVAAPDIQMTQSPSSLSASVGDRVTITCRASQDISNMLNWYQQKPGKTPKLLIYYTSRLYPGVPSRFSGSGSGTDYTFTISSLQPEDIATYFCQQGKTLPYAFGQGTKLEIKRTVAAPSVFIFPPSDEQLKSGTASVVCLLNNFYPREAKVQWKVDNALQSGNSQESVTEQDSKDSTYSLSSTLTLSKADYEKHKVYACEVTHQGLSSPVTKSFNRGEC
notes: DVD-Ig, outer domain anti-IL-1β, inner domain anti-IL-1α, short linkers
Take B1: in the assay with Cynomolgus IL-1α, the “Cyno IL-1α Neutralization Assay EC50 (IL-1 induced hIL-8, MRC-5 cells)” value was determined as 0.081 nM. In the assay with Recombinant Human IL-1β [1], the Kd was determined as 0.00611 nM, the off-rate (koff) came out at 7.85e-06 s⁻¹ and the kon was determined as 1.28e+06 M⁻¹ s⁻¹. In the assay with Recombinant Human IL-1α [2], the Kd came to 0.403 nM, the dissociation rate constant (koff) came to 2.34e-05 s⁻¹ and the kon came out at 58100 M⁻¹ s⁻¹. For the same molecule, the “Human IL-1β Neutralization Assay EC50 (IL-1 induced hIL-8, MRC-5 cells)” value with Recombinant Human IL-1β [3] turned out to be 0.002 nM. For the same molecule, the “Human IL-1α Neutralization Assay EC50 (IL-1 induced hIL-8, MRC-5 cells)” value with Recombinant Human IL-1α [4] was determined as 0.0479 nM. The “Cyno IL-1β Neutralization Assay EC50 (IL-1 induced hIL-8, MRC-5 cells)” value with Cynomolgus IL-1β stood at 0.0121 nM.
